The subject of the series is HIV-AB-KOX (synthetic construct). Description: cell_activity. Particulars: LTR-luciferase, Jurkat, Tat+PMA+PHA.

In turn, “AGCTTTCTACAAGGGACTTTCCGCTGGGGACTTTCCAGGGAGGCGTGGCCTGGGCGGGACTGGGGAGTGGCGTCCCTCAGATGCTGCATATAAGCAGCTGCTTTTTGCCTGTACTGGGTCTCTCTGGTTAGACCAGATCTGAGCCTGGGAGCTCTCTGGCTAACTAGGGAACCC (double strand) [HIV-1 LTR reporter]” displayed an activity of 96 % inhibition.

The values are drawn from patent US20040039175.
